Results from the Human Domainome abundance scans (Beltran et al. 2025).

B1: Homeobox protein SIX3, residues 212 to 262; numbered along this chain, O95343 (parent)
chain: CFKERTRSLLREWYLQDPYPNPSKKRELAQATGLTPTQVGNWFKNRRQRDR
B2: Zinc finger protein ZIC 2, residues 250 to 295; numbered along this chain, O95409 (parent)
chain: QCIKQELICKWIDPEQLSNPKKSCNKTFSTMHELVTHVSVEHVGGP

Variants of: B1
Test: abundance fitness (aPCA) (normalised: wild type 0, dead -1); higher = more abundant; growth selection in yeast, the domain comes from the species named
Details: Homo sapiens

Abundance fitness, by site and new letter:
R51: G -0.375, V -0.441, N -0.267, W -0.309

Variants of: B2
Test: as above
Details: Homo sapiens

Abundance fitness: each site, then its substitutions
E15: W -0.206, R -0.217, V -0.137, A 0.077, Q -0.406, D -0.254, G -0.145, K 0.077, Y -0.14, P -0.388, F -0.23, H -0.233, C -0.132, S 0.018, I 0.051, M -0.079, L 0.104, T -0.31
K10: I -0.484, V -0.4, F -0.506, D 0.018, H 0.236, G -0.138, T 0.33, L -0.248, N 0.394, A -0.193, E 0.157, C -0.19, Q 0.205, P -0.45, Y 0.165, W -0.277
P14: L -0.434, M -0.334, F -0.788, G -0.237, V -0.369, I -0.975, H -0.199, N -0.123, Q -0.449, C -0.33, R -0.2, T -0.377, W -0.484, S -0.28, Y -0.499, K -0.885, E -0.216, D -0.65, A -0.316
Q5: F -0.612, A -0.071, V -0.779, D 0.366, L -0.661, T -0.22, H -0.382, K 0.05, C -0.733, P 0.037, W -0.777, R -0.014, I -0.906, S -0.24, M -0.688, G -0.283, E 0.242, Y -0.641, N 0.018
L17: C -0.245, T 0.035, R -0.304, I 0.067, N 0.124, A 0.084, F 0.143, G -0.363, S -0.111, P 0.101, Y -0.564, V 0.11, K -0.071, Q -0.173, H -0.662, E 0.306, D 0.176, W -0.623
E6: L -0.974, K -0.687, Q -0.207, W -0.767, C -0.632, N -0.264, Y -0.653, F -1.04, T -0.748, H -0.687, G -0.198, S 0.009, R -0.312, V -0.778, A -0.351, I -1.62
W11: F 0.187, S -0.212, L -0.079, T -0.413, K 0.216, C -0.712, G -0.089, Q 0.241, H 0.002, Y 0.005, D -0.647, N -0.216, V -0.115, P -0.348, R 0.037, A -0.223, M -0.146, E 0.117
L7: E 0.17, F -0.322, R 0.044, A 0.097, H 0.306, P 0.194, C -0.196, W -0.223, N 0.22, D -0.375, K 0.309, M 0.191, Y -0.152, T 0.001, G -0.425, I -0.103, V 0.08, Q 0.401
C2: Q 0.127, K 0.194, V 0.419, E 0.123, F -0.182, N -0.176, P -0.136, M 0.612, R -0.129, S 0.047, G 0.259, I 0.605, L 0.73, T 0.126, H -0.126, D 0.108
N19: Y -0.451, M -0.067, K -0.012, E -0.006, V 0.007, I 0.164, A -0.131, D -0.092, T 0.118, W -0.74, Q 0.132, R -0.053, H 0.056, C -0.957, L -0.17, F -0.166, P -0.104, S -0.079
I3: Q 0.224, H -0.518, Y -0.151, C -0.673, V -0.248, W -0.376, K -0.652, E -0.352, D -0.541, R -0.61, T 0.052, S -0.526, L -0.254, N -0.602, M 0.174, P -0.586, F -0.57, A -0.568
K4: P -0.236, L -0.184, A -0.187, I -0.734, D 0.261, G -0.309, N -0.085, W -1.05, S -0.204, M -0.105, Y -0.671, H -0.816, V -0.513, C -0.411, F -0.645, Q -0.458, E 0.088, T -0.304
Q16: R -0.432, N -0.414, H -0.077, Y -0.211, S 0.073, A -0.144, L 0.068, T -0.051, P -0.285, V -0.302, E -0.397, W -0.069, I -0.11, F -0.376, D -0.074, M -0.25, G -0.251, K -0.335, C -0.014
C9: Q -0.675, P -0.776, I -0.96, W -1.03, K -0.473, M -0.822, A -0.651, F -0.975, G -0.714, V -0.841, L -0.863, H -1.03, D -0.758, S -0.78, Y -0.829, E -0.578
I12: L -0.551, Q -0.144, E 0.111, F -0.179, R -0.228, Y -0.175, M -0.077, G -0.278, S -0.022, H 0.098, T 0.041, K -0.085, N -0.417, P 0.018, A -0.363, C 0.013, D -0.064
D13: V -0.434, E -0.235, C -0.176, K -0.66, F 0.041, H -0.216, I -0.559, A -0.101, M -0.568, S -0.352, T -0.81, Q -0.492, P -0.387, W -0.311, G -0.328, R -0.442
I8: L -0.056, H 0.033, M 0.031, W -0.31, Q 0.171, G 0.036, Y -0.245, D 0.384, K 0.4, R 0.241, C -0.177, T 0.041, N 0.586, V 0.086, S 0.02
S18: C -0.06, I -0.409, R -0.198, M -0.348, Q -0.36, D -0.125, G -0.427, A -0.348, L -0.145, E -0.394, K 0.282, T 0.118, N 0.286, W -0.265, F -0.15, H -0.389, Y -0.317, P -0.171, V -0.485
Q1: M -0.131, H -0.101, K -0.455, P -0.915, Y -0.705, C -0.274, V -0.349, D 0.21, T 0.146, G -0.22, S 0.503, W -0.321, A 0.373, L -0.356, E -0.077, N 0.294
